Read-outs that look alike come from different tables or passages of the source.
B1: M146-E12 (Fab, V domains shown)
VH: EVQLLESGGGLVQPGGSLRLSCAASGFTFSRYIMHWVRQAPGKGLEWVSSISPSGGLTSYADSVKGRFTISRDNSKNTLYLQMNSLRAEDTAVYYCAREFENAYHYYYYGMDVWGQGTTVTVSS
VL: DIQMTQSPSSLSASVGDRVTITCRASGDIGNALGWYQQKPGKAPRLLISDASTLQSGVPLRFSGSGSGTEFTLTISSLQPEDFATYYCLQGYNYPRTFGQGTKLEIR
notes: claim 26 (viii) gives VL 265 and VH 266 instead
B2: M11-E06 (Fab, V domains shown)
VH: EVQLLESGGGLVQPGGSLRLSCAASGFTFSQYAMHWVRQAPGKGLEWVSSIYPSGGFTLYADSVKGRFTISRDNSKNTLYLQMNSLRAEDTAMYYCARGGWLAGGELLNWGQGTLVTVSS
VL: DIQMTQSPSSLSASIGDRVTISCRASRGIGTYLNWYQQHAGKAPKLLIRAASSLETGVPPRFSGSGSGTDFTLTISSLQSDDFATYYCQESFTNVYNFGQGTKLEIK
B3: M110-C12 (Fab, V domains shown)
VH: EVQLLESGGGLVQPGGSLRLSCAASGFTFSYYEMDWVRQAPGKGLEWVSGISSSGGHTAYADSVKGRFTISRDNSKNTLYLQMNSLRAEDTATYYCARERRSSSRARYYYGMDVWGQGTTVTVSS
VL: DIQMTQSPLSLSVTPGEPASISCRSSLSLLHSNGYNYLDWYVQRPGQSPQLLMYLSSTRASGVPDRFSGSGSGTDFTLEISRVEAEDVGVYYCMQPLETPPTFGGGTKVEIK
B4: M76-D01 (Fab, V domains shown)
VH: EVQLLESGGGLVQPGGSLRLSCAASGFTFSFYAMHWVRQAPGKGLEWVSGIVPSGGRTHYADSVKGRFTISRDNSKNTLYLQMNSLRAEDTAVYYCATDSSGSPNPLFDYWGQGTLVTVSS
VL: DIVMTQTPPSLPVNPGEPASISCRSSQSLSDDGNTYLDWYLQRPGQSPQLLIHTLSYRASGVPDRFSGSGSGTDFTLKISRVEAEDVGVYYCMQGTHWPPTFGQGTKVEIK
B5: M11-E01 (Fab, V domains shown)
VH: EVQLLESGGGLVQPGGSLRLSCAASGFTFSTYEMYWVRQAPGKGLEWVSGIGSSGGMTMYADSVKGRFTISRDNSKNTLYLQMNSLRAEDTAMYYCAREQPGIAALQFWGQGTLVTVSS
VL: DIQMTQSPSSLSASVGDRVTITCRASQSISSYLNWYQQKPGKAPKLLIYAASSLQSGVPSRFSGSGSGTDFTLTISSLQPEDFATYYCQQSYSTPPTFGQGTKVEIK
B6: M11-E05 (Fab, V domains shown)
VH: EVQLLESGGGLVQPGGSLRLSCAASGFTFSWYTMGWVRQAPGKGLEWVSWIYFGGLTTYADSVKGRFTISRDNSKNTLYLQMNSLRAEDTAVYYCARLGGPLDAFDIWGQGTMVTVSS
VL: DIQMTQSPSSLSASVGDTVTITCRTSQTINNYLNWYQQRPGEAPKVLIYATHTLESGVPSRFSGSGSGTDFTLTIGSLQPEDFATYYCQQSFAFPYTFGQGTKVEIT
B7: M7-B04 (Fab, V domains shown)
VH: EVQLLESGGGLVQPGGSLRLSCAASGFTFSWYSMVWVRQAPGKGLEWVSSISPSGGLTNYADSVKGRFTISRDNSKNTLYLQMNSLRAEDTAVYYCARHTAARPFYYYYMDVWGKGTTVTVSS
VL: QSALTQPASVSGSPGQSITISCTGTNSDVGNYNLVSWYQQHPGEAPKLLIYEVNKRPSGVSNRFSGSKSGNTASLTISGLQAEDEADYLCCSYAGNRNFYVFGAGTKVTVL
B8: M137-E12 (Fab, V domains shown)
VH: EVQLLESGGGLVQPGGSLRLSCAASGFTFSDYRMQWVRQAPGKGLEWVSVIVPSGGNTMYADSVKGRFTISRDNSKNTLYLQMNSLRAEDTAVYYCARGGPGSSIAARRAPTGYYGMDVWGQGTTVTVSS
VL: QSVLIQPPSVSGIPGQRVTISCSGNNSNFGSNTVTWYQQLPGTAPKLLIYSDSRRPSGVPDRFSGSRSDTSASLAISGLQSEDEAEYHCAAWDDSLNGVFGGGTKLTVL
B9: M29-E09 (Fab, V domains shown)
VH: EVQLLESGGGLVQPGGSLRLSCAASGFTFSWYEMGWVRQAPGKGLEWVSSIYSSGGGTMYADSVKGRFTISRDNSKNTLYLQMNSLRAEDTAVYYCARNPQYSGYDRSLSDGAFDIWGQGTMVTVSS
VL: QYELTQPPSVSVSPGQTATITCSGDNLGNKYNSWYQQKPGQSPLLVIYQDTKRPSAIPERFSGSNSGNTATLTISGTQAMDEADYYCQAWDGNVVFGGGTKLTVL
B10: M29-D09 (Fab, V domains shown)
VH: EVQLLESGGGLVQPGGSLRLSCAASGFTFSWYTMVWVRQAPGKGLEWVSYIYPSGGATFYADSVKGRFTISRDNSKNTLYLQMNSLRAEDTAVYYCAMGSYDYIWGFYSDHWGQGTLVTVSS
VL: QSALTQPPTVSVSPGQTARITCSGNKLGDKYVAWYQQKPGQSPMLVIYQDTKRPSRVSERFSGSNSANTATLSISGTQALDEADYYCQAWDSSIVIFGGGTRLTVL
notes: also called 559A-M29-D09 (sFab); 559A-M0029-D09
B11: M11-E04 (Fab, V domains shown)
VH: EVQLLESGGGLVQPGGSLRLSCAASGFTFSMYHMNWVRQAPGKGLEWVSGIVSSGGVTFYADSVKGRFTISRDNSKNTLYLQMNSLRAEDTAVYYCARITTVTTGGAFDIWGQGTMVTVSS
VL: DIQMTQSPSSLSASVGDRVTITCRASQSISIYLTWYQHRPGKAPNLLIYGAATLQTGVPSRFSGSGSGTDFTLTIRGLQPEDFATYYCQQTFSLPRTFGQGTKLEIK
B12: M11-G09 (Fab, V domains shown)
VH: EVQLLESGGGLVQPGGSLRLSCAASGFTFSLYNMTWVRQAPGKGLEWVSYIYPSGGGTHYADSVKGRFTISRDNSKNTLYLQMNSLRAEDTAVYYCARDTGFWSADAFDIWGQGTMVTVSS
VL: DIQMTQSPSSLSASVGDRVTITCRTSQGINHYLNWYQQKPGKAPKILVFAASELQTGVPSRFSGTGSGTSYTLTITSLQPEDVATYYCQQTYTSPYTFGQGTKLEVK
B13: M41-A11 (Fab, V domains shown)
VH: EVQLLESGGGLVQPGGSLRLSCAASGFTFSHYRMSWVRQAPGKGLEWVSSIYPSGGRTVYADSVKGRFTISRDNSKNTLYLQMNSLRAEDTAVYYCAKDKFEWRLLFRGIGNDAFDIWGQGTMVTVSS
VL: QSVLTQPPSVSVSPGQTASITCSGDKLGDKYTSWYQQRPGQSPVLVIYQDIKRPSGIPERFSGSNSGNTATLTISGTQAMDEADYYCQAWDSPNARVFGSGTKVTVL
B14: M145-D11 (Fab, V domains shown)
VH: EVQLLESGGGLVQPGGSLRLSCAASGFTFSHYRMSWVRQAPGKGLEWVSSIYPSGGRTVYADSVKGRFTISRDNSKNTLYLQMNSLRAEDTAVYYCAKDKFEWRLLFRGIGNDAFDIWGQGTMVTVSS
VL: QSVLTQPPSVSVSPGQTASITCSGDKLGDKYTSWYQQRPGQSPVLVIYQDIKRPSGIPERFSGSNSGNTATLTISGTQAMDEADYYCQAWDSPNARVFGSGTKVTVL
notes: also called 559A-M145-D11 (sFab); 559A-M0145-D11
B15: M11-A10 (Fab, V domains shown)
VH: EVQLLESGGGLVQPGGSLRLSCAASGFTFSNYWMMWVRQAPGKGLEWVSGIGSSGGFTSYADSVKGRFTISRDNSKNTLYLQMNSLRAEDTAVYYCAKGSYSDYGVFESWGQGTLVTVSS
VL: DIQMTQSPSSLSASVGDRVAITCRASQSIDTYLNWYQQKPGKAPKLLIYDASNLEIGVPSRFSGSGSGTDFTFIINSLQPEDVATYYCQHYLYAPYSFGQGTKLEIK
B16: M35-G04 (Fab, V domains shown)
VH: EVQLLESGGGLVQPGGSLRLSCAASGFTFSYYHMSWVRQAPGKGLEWVSVISPSGGSTKYADSVKGRFTISRDNSKNTLYLQMNSLRAEDTAVYYCARGGSSDYAWGSYRRPYYFDYWGQGTLVTVSS
VL: DIQMTQSPATLSLSPGERATLSCRASQSVSSYLAWYQQKPGQAPRLLIYDASNRATGIPARFSGSGSGTDFTLTISSLEPEDFAVYYCQQRSNWPRGFTFGPGTKVDIK
notes: also called 559A-M35-G04; 559A-M0035-G04
B17: M145-D01 (Fab, V domains shown)
VH: EVQLLESGGGLVQPGGSLRLSCAASGFTFSYYHMSWVRQAPGKGLEWVSVISPSGGSTKYADSVKGRFTISRDNSKNTLYLQMNSLRAEDTAVYYCARGGSSDYAWGSYRRPYYFDYWGQGTLVTVSS
VL: DIQMTQSPATLSLSPGERATLSCRASQSVSSYLAWYQQKPGQAPRLLIYDASNRATGIPARFSGSGSGTDFTLTISSLEPEDFAVYYCQQRSNWPRGFTFGPGTKVDIK
B18: M27-E05 (Fab, V domains shown)
VH: EVQLLESGGGLVQPGGSLRLSCAASGFTFSWYLMIWVRQAPGKGLEWVSYIYPSGGFTYYADSVKGRFTISRDNSKNTLYLQMNSLRAEDMAVYYCARTEGPLSWGYGMDVWGQGTTVTVSS
VL: not shown
B19: M142-H08 (antibody, V domains shown)
VH: EVQLLESGGGLVQPGGSLRLSCAASGFTFSAYSMIWVRQAPGKGLEWVSYIRPSGGRTTYADSVKGRFTISRDNSKNTLYLQMNSLRAEDTAVYYCARGGLLLWFRELKSNYFDYWGQGTLVTVSS
VL: DIQMTQSPSSLSAFVGDRVTITCRASQPIDNYLNWYHQKPGKAPKLLIYAASRLQSGVPSRLSGSGFGTDFTLTISSLQPEDFGNYYCQQSYTVPYTFGGGTKVEIR
notes: tested as Fab (Ki,app) and as human IgG (SPR); the IgG is cleaved in HC CDR3 after WFR
B20: M10-G09 (Fab, V domains shown)
VH: EVQLLESGGGLVQPGGSLRLSCAASGFTFSQYGMQWVRQAPGKGLEWVSSIRSSGGATRYADSVKGRFTISRDNSKNTLYLQMNSLRAEDTAVYYCARDGYYDSSGYPDYWGQGTLVTVSS
VL: DIQMTQSPSSLSASVGDSVTITCRASQSISGYINWYQQKAGKAPKLLIYAASSLQSGVPSRFSGSGSGTHFTLTISSLQPEDFATYYCQQYVSYPFTFGPGTKVDIK
B21: M73-D06 (Fab, V domains shown)
VH: EVQLLESGGGLVQPGGSLRLSCAASGFTFSRYEMYWVRQAPGKGLEWVSSISSSGGPTAYADSVKGRFTISRDNSKNTLYLQMNSLRAEDTAMYYCAKGTPKWELLLRSIYIENAFDIWGQGTMVTVSS
VL: QSELTQPPSASETPGQRVTISCSGSSSNIGSNTVSWFQQLPGSAPRLLIYNDHRRPSGVPDRFSGSKSGTSASLVISGLQSQDEADYYCSAWDDSLNGVVFGGGTKLTVL
B22: M38-F02 (Fab, V domains shown)
VH: EVQLLESGGGLVQPGGSLRLSCAASGFTFSYYMMVWVRQAPGKGLEWVSYIYSSGGHTVYADSVKGRFTISRDNSKNTLYLQMNSLRAEDTAVYYCARDLFLYDFWSKGAFDIWGQGTMVTVSS
VL: QSVLTQPPSVSVSPGQTASITCSGEKLGDKYVSWYQQKPGQSPSLVICEDSRRPSGIPERFSGSNSGNTATLTISGAQPMDEADYYCQAWDSSTAIFGPGTKVTVL

Columns and labels:
human plasma kallikrein [1] = target: T1, human plasma kallikrein (human, UniProt P03952 20-390; P03952 391-638); experiment: ELISA, biotinylated pKal signal over streptavidin background
T1 construct: two disulfide-linked chains; NP_000883.2; also called pKal; hpKal
T1 sequence (P03952 20-390 limits assumed, chain 1 of 2): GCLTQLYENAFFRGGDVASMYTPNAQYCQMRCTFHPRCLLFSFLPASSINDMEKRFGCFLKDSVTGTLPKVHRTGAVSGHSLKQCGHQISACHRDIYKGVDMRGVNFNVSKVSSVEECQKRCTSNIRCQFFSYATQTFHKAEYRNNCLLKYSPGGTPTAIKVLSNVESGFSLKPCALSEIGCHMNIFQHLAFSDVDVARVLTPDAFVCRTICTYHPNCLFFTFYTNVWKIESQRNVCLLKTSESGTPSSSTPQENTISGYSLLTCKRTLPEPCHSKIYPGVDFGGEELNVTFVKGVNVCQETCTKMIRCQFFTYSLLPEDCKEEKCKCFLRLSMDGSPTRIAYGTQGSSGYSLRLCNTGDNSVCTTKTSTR
T1 sequence (P03952 391-638 limits assumed, chain 2 of 2): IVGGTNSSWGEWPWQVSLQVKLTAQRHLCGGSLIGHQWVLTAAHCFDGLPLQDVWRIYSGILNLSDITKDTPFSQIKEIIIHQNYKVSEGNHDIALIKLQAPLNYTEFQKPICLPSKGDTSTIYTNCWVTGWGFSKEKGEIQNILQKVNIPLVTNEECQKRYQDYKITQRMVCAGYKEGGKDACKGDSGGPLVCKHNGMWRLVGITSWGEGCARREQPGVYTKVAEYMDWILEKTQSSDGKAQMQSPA

human plasma kallikrein [2] = target: T1, human plasma kallikrein; experiment: as above; remark: listed apart in the source

| Binder | ELISA (T/B) (human plasma kallikrein [1]) | ELISA (T/B) (human plasma kallikrein [2]) |
| --- | --- | --- |
| B1 | 49.6 |  |
| B2 |  | 12.6 |
| B3 | 2.4 |  |
| B4 | 11.2 |  |
| B5 |  | 11.7 |
| B6 |  | 41.4 |
| B7 | 4.1 |  |
| B8 | 4.5 |  |
| B9 | 28.8 |  |
| B10 | 47.5 |  |
| B11 |  | 43.2 |
| B12 |  | 23.6 |
| B13 | 28 |  |
| B14 | 40 |  |
| B15 |  | 25 |
| B16 | 11.1 |  |
| B17 | 6.2 |  |
| B18 | 41.3 |  |
| B19 | 29.9 |  |
| B20 |  | 7.1 |
| B21 | 4 |  |
| B22 | 33.5 |  |

Source: US20260176378A1 (DYAX, published 2026)
